Reference: publication PMC2733745 (The Journal of Cell Biology, 2009)

Legend:
[1] = molecular target: full-length WT αVβ3 stably expressed on K562 cells (human, UniProt P06756;P05106); test: flow cytometry on cells
1TM-αVβ3 = 1TM-αVβ3 (human, UniProt P06756;P05106); test: SEC
[2] = molecular target: FN7–10 (fibronectin type III domains 7–10) (human, UniProt P02751-1 1173-1540); test: SEC

B1: Fab fragment of the anti–αV propeller mAb 17E6 (Fab, V domains shown)
VH: QVQLQQSGAELAEPGASVKMSCKASGYTFSSFWMHWVKQRPGQGLEWIGYINPRSGYTECNEIFRDKATMTADTSSSTAYMQLSGLTSEDSAVYYCASFLGRGAMDYWGQGTSVTVSS
VL: DIQMTQTTSSLSASLGDRVIISCRASQDISNYLSWYQQKPDGTVKLLIFYTSKLHSGVPSRFSGSGSGTDYSLTISNLDQEDIATYFCQQGNTFPYTFGGGTKVEMR
B1: binds [1]; binds (1TM-αVβ3).

B2: 1TM-αVβ3 (complex)
chain 1: FNLDVDSPAEYSGPEGSYFGFAVDFFVPSASSRMFLLVGAPKANTTQPGIVEGGQVLKCDWSSTRRCQPIEFDATGNRDYAKDDPLEFKSHQWFGASVRSKQDKILACAPLYHWRTEMKQEREPVGTCFLQDGTKTVEYAPCRSQDIDADGQGFCQGGFSIDFTKADRVLLGGPGSFYWQGQLISDQVAEIVSKYDPNVYSIKYNNQLATRTAQAIFDDSYLGYSVAVGDFNGDGIDDFVSGVPRAARTLGMVYIYDGKNMSSLYNFTGEQMAAYFGFSVAATDINGDDYADVFIGAPLFMDRGSDGKLQEVGQVSVSLQRASGDFQTTKLNGFEVFARFGSAIAPLGDLDQDGFNDIAIAAPYGGEDKKGIVYIFNGRSTGLNAVPSQILEGQWAARSMPPSFGYSMKGATDIDKNGYPDLIVGAFGVDRAILYRARPVITVNAGLEVYPSILNQDNKTCSLPGTALKVSCFNVRFCLKADGKGVLPRKLNFQVELLLDKLKQKGAIRRALFLYSRSPSHSKNMTISRGGLMQCEELIAYLRDESEFRDKLTPITIFMEYRLDYRTAADTTGLQPILNQFTPANISRQAHILLDCGEDNVCKPKLEVSVDSDQKKIYIGDDNPLTLIVKAQNQGEGAYEAELIVSIPLQADFIGVVRNNEALARLSCAFKTENQTRQVVCDLGNPMKAGTQLLAGLRFSVHQQSEMDTSVKFDLQIQSSNLFDKVSPVVSHKVDLAVLAAVEIRGVSSPDHVFLPIPNWEHKENPETEEDVGPVVQHIYELRNNGPSSFSKAMLHLQWPYKYNNNTLLYILHYDIDGPMNCTSDMEINPLRIKISSLQTTEKNDTVAGQGERDHLITKRDLALSEGDIHTLGCGVAQCLKIVCQVGRLDRGKSAILYVKSLLWTETFMNKENQNHSYSLKSSASFNVIEFPYKNLPIEDITNSTLVTTNVTWGIQPAPMPVPVWVI
chain 2: GPNICTTRGVSSCQQCLAVSPMCAWCSDEALPLGSPRCDLKENLLKDNCAPESIEFPVSEARVLEDRPLSDKGSGDSSQVTQVSPQRIALRLRPDDSKNFSIQVRQVEDYPVDIYYLMDLSYSMKDDLWSIQNLGTKLATQMRKLTSNLRIGFGAFVDKPVSPYMYISPPEALENPCYDMKTTCLPMFGYKHVLTLTDQVTRFNEEVKKQSVSRNRDAPEGGFDAIMQATVCDEKIGWRNDASHLLVFTTDAKTHIALDGRLAGIVQPNDGQCHVGSDNHYSASTTMDYPSLGLMTEKLSQKNINLIFAVTENVVNLYQNYSELIPGTTVGVLSMDSSNVLQLIVDAYGKIRSKVELEVRDLPEELSLSFNATCLNNEVIPGLKSCMGLKIGDTVSFSIEAKVRGCPQEKEKSFTIKPVGFKDSLIVQVTFDCDCACQAQAEPNSHRCNNGNGTFECGVCRCGPGWLGSQCECSEEDYRPSQQDECSPREGQPVCSQRGECLCGQCVCHSSDFGKITGKYCECDDFSCVRYKGEMCSGHGQCSCGDCLCDSDWTGYYCNCTTRTDTCMSSNGLLCSGRGKCECGSCVCIQPGSYGDTCEKCPTCPDACTFKKECVECKKFDRGALHDENTCNRYCRDEIESVKELKDTGKDAVNCTYKNEDDCVVRFQYYEDSSGKSILYVVEEPECPKGPDILVV
For B2, the “stoichiometry N” value [2] was roughly 1 integrin/FN molar ratio.
